Drawing on PMC11880201 (Nature Communications, 2025), this text covers Kd for one molecule.

The target of the test is TEAD (residue 28-104) of TEAD1 (UniProt P28347 28-104). In words: fluorescence polarisation.
Sequence of TEAD (residue 28-104) of TEAD1 (P28347 28-104): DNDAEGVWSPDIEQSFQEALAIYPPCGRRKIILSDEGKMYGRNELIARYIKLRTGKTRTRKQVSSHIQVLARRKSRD

B1: FITC-labeled INSM1 ZF1 (domain or fragment)
chain: not shown
modifications: FITC label (FITC rapid labeling kit), site not stated
Take B1: the Kd came to 39.5 nM.
